How the values were obtained:
B/MY04 N135R EHA2 [1] = target: T1, B/MY04 N135R EHA2 (Influenza B virus B/Malaysia/2506/2004, UniProt P03461 374-538); assay: ELISA, rIgG (FIG. 13)
T1 chain: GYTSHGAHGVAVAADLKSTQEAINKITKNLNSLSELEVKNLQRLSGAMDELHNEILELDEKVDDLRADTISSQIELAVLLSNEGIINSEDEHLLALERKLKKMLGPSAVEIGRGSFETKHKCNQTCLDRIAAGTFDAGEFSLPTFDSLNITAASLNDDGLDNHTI

B/MY04 N135R EHA2 [2] = target: T1, B/MY04 N135R EHA2; assay: ELISA, rIgG (FIG. 20A)

B1: M94 (antibody, V domains shown)
VH: QVQLVESGAEVKRPGASVKVACKASEYRFAASYIHWVRQAPGQGLEWMGWINLNSGDTKSSQKFQGWVTLTRDTSINTVYMEMTNLKFDDTAIYYCAKIILGGGGLDVWGQGTTVTVSS
VL: QSVLTQPRSVSGSLGQSVTISCSGTSTDVGSYEFVSWYQHHPGKAPKLIIYDVSKRPSGVPDRFSGSKSGNTASLAVSGLQSDDEADYYCSSYADTSNTWVFGGGTKLTVL
B1: no binding (B/MY04 N135R EHA2 [1]).

B2: C1_ID26079-156194 (antibody, V domains shown)
VH: QVQLVQSGAEVKKPGASVKVSCKASGYTFTGNYMHWVRQAPGQGLEWMGWINPDSGGTNYAQRFQGRVTMTRDTSISTAYMELSRLTSDDTAMYYCARVMLRSSGFDSWGQGTLVTVSS
VL: QSALIQPASVSGSPGQSITISCTGTSSDVGTYNLVSWYQQHPGKVPKLMIYEASERPSGVSNRFSGSKSGNTASLTISGLQAEDEADYYCCSYAGNSAWVFGGGTKLTVL
B2: no binding (B/MY04 N135R EHA2 [1]).

B3: 351-52 (antibody, V domains shown)
VH: QVQLAQSGAEVRKPGASVKVSCKASGYTFTDYYIHWVRQAPGQGLEWMGWINPDSGRTNYAQRFQGRVSMTSDTSISTAYMDLSRLRSDDTAVYFCAREGAHNYQHFDHWGQGTLVTVSA
VL: EIVLTQSPDTLSLSPGESATLFCRASQSVRSSYLAWYQQTPGQAPRLLIYGASSRATGIPDRFSGSGSGTDFTLTISRLEPEDFAVYYCQQFGRSSWTFGQGTKVEIK
B3: no binding (B/MY04 N135R EHA2 [1]).

B4: S1V2-72 (antibody, V domains shown)
VH: QVQLVQSGAELKKPGASVKVSCKASGYTFTGNYIHWMRQVPGQGLEWMGWINPRTGDTHHAQKFQGRVDMTRDTSINTAYLELTRLESDDTALYYCARCVFATSQFDPWGQGTLVTVSS
VL: QSALTQPASVSGSPGQSITISCTGTNSDIGSHNLVSWYQQHPGKAPKVMIYDDSKRPSGVSNRFSGSKSGSTASLTISGLQSEDEADYYCCSYAGSSNWVFGGGTKLTLL
B4: no binding (B/MY04 N135R EHA2 [2]).
